Key:
[1] = target: T1, ACVR1 (as used for surface plasmon resonance) (Homo sapiens (assumed), UniProt Q04771); assay: SPR; BIAcore; which partner was immobilised, and the conditions, are not told in the text shown; settings: both partners purified
T1 construct: ACVR1 (ALK2), BMP type I receptor; For other steps (serum ELISA, panning, BLI) the methods name recombinant human ACVR1 extracellular domain proteins (Creative Biomart ACVR1-01H; Sino Biologicals 10227-H03B; R&D Systems 637-AR), but none is named for the BIAcore measurement; It was probably an extracellular domain construct; also called ALK2; BMP type I receptor ACVR1
T1 sequence (Q04771 21-509): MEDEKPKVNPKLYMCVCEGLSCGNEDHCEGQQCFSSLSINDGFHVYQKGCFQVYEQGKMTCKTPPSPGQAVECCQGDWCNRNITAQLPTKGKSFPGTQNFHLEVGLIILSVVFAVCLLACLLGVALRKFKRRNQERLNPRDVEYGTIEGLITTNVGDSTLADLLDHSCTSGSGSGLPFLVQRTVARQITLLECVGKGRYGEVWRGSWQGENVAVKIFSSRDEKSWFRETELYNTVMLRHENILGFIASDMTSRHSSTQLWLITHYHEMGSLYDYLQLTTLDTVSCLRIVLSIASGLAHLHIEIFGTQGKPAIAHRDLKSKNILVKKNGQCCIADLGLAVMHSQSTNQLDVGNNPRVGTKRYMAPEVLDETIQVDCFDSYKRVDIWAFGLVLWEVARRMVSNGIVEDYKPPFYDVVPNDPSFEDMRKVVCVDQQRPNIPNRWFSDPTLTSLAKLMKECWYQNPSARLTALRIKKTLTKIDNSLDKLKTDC

[2] = target: T2, ACVR1 on parental C2C12 cells (Mus musculus (C2C12, endogenous), UniProt P37172); assay: flow cytometry on cells; JAB0505 on parental (wild-type ACVR1-expressing) and ACVR1-KO C2C12 cells; settings: one partner purified
T2 construct: ACVR1 (ALK2), mouse, endogenous on the surface of C2C12 cells; also called ALK2; wild-type ACVR1; source: endogenous, on mouse C2C12 myoblast cells
T2 sequence (P37172 21-509): as the sequence (Q04771 21-509) above, with M1V, P10Q, L121I, D162E, P310S counted along it

ALK3 on C2C12 cells = target: T3, ALK3 on C2C12 cells (Mus musculus (C2C12, endogenous), UniProt P36895); assay: as above; settings: one partner purified
T3 construct: ALK3 (BMPR1A), mouse, endogenous on the surface of C2C12 cells; also called Bmpr1a; source: endogenous, on mouse C2C12 myoblast cells (ACVR1-KO clone)
T3 sequence (P36895 24-532): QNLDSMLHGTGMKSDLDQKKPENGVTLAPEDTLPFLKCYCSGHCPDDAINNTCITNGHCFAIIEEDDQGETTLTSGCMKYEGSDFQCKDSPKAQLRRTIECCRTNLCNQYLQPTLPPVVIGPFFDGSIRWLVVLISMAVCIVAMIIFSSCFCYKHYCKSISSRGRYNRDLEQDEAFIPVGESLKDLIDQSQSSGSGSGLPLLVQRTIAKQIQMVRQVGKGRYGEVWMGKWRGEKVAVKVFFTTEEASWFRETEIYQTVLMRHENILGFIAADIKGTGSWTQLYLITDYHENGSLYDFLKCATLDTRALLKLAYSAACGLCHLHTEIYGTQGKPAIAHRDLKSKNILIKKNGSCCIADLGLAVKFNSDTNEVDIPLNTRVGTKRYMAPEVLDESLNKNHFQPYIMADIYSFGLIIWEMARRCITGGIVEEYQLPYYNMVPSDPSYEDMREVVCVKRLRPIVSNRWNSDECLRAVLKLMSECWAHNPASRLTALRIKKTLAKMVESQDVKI

Kd [1]: ~25 nM | binding result [2]: binds | binding result (ALK3 on C2C12 cells): no binding
B1: anti-ACVR1 monoclonal antibody JAB0505 (antibody, V domains shown)
VH: EVQLQQSGAELVRPGASVRLSCTASGFNIKDSLMHWVKQRPEQGLEWIGWIDPEDGETRYAPNFQDKATITAVTSSNTAYLQLSSLTSEDSAIYYCARYTSRYYTMDYWGQGTSVTVSS
VL: DIQMTQSPASQSASLGESVTFTCLASQTIGTWLAWYQQKPGKSPQLLIYAATSLADGVPSRFSGSGSGTKFSFKISSLQAEDFASYYCQQLYWTPWTFGGGTKLEIK
notes: also called anti-ACVR1 mAb; mAb JAB0505; source: HEK293 cells, purified by protein A chromatography; copies: 2 + 2
